# Laboratory results as given in patent US20120220492A1.
# Experiments:
# antibody against CD29 = test: cell-based or functional assay
# antibody against c-kit = test: cell-based or functional assay
Substance,infectious titers on Jurkat cells (GFP positive cells by FACS) (antibody against CD29; scale: times higher than virus with a wildtype capsid),transduction efficiency on MO7E cells (antibody against c-kit),transduction efficiency on MO7E cells (fold higher than wildtype) (antibody against c-kit),transgene expression (antibody against c-kit; scale: fold higher than virus with wildtype capsid),transgene expression (antibody against c-kit; scale: times higher than virus with wildtype capsid),infectivity on Jurkat cells (fold lower than the 25% virus) (antibody against CD29),infectivity on MO7E cells (fold lower than the 25% virus) (antibody against c-kit)
AAV mosaic composed of 25% mutant capsid proteins with a Protein A fragment (Z34C) insertion at position 587 (from UniProt P03135 1-735; P03135 139-735; P03135 203-735; P03135 139-735; P03135 203-735),2 to 3,10 fold,100,100,100000,–,–
AAV mosaic composed of 50% mutant capsid proteins with a Protein A fragment (Z34C) insertion at position 587 (from UniProt P03135 1-735; P03135 139-735; P03135 203-735; P03135 139-735; P03135 203-735),–,–,–,–,–,2,3
